# Numbering of substitutions follows the chain as printed.
# B1: Fab QA1 (Fab, V domains shown)
# VH: LEQSGAEVKKPGASVKVSCQASGYRFSNFTVHWVRQAPGQRFEWMGWINPYNGNKEFSAKFQDRVTFTADTSANTAYMELRSLRSADTAVYYCARVGEWGWDDSPQDNYYMDVWGKGTTVIVSS
# VL: ELTQSPGTLSLSPGERATFSCRSSHQLDGSRVAWYQHKPGQAPRLVIHGVSNRASGISDRFSGSGSGTDFTLTITRVEPEDFALYYCQVYGWSQYTFGQGTKLERKR
# B2: Fab QA2 (Fab, V domains shown)
# VH: B1 VH
# VL: B1 VL with V89L, W92R, S93G, Q94N
# B3: Fab QA4 (Fab, V domains shown)
# VH: B1 VH
# VL: B1 VL with V89S, W92G, S93R, Q94D
# B4: Fab QA5 (Fab, V domains shown)
# VH: B1 VH
# VL: B1 VL with V89T, Q94G
# B5: Fab QA8 (Fab, V domains shown)
# VH: B1 VH
# VL: B1 VL with V89Q, W92D, Q94L
# B6: Fab QA9 (Fab, V domains shown)
# VH: B1 VH
# VL: B1 VL with V89M, W92G, S93F, Q94T
# B7: Fab QA10 (Fab, V domains shown)
# VH: B1 VH
# VL: B1 VL with V89T, W92R, S93G, Q94S
# B8: Fab QA11 (Fab, V domains shown)
# VH: B1 VH
# VL: B1 VL with V89T, W92R, S93G, Q94H
# notes: also called LH (its light chain)
# B9: Fab QA12 (Fab, V domains shown)
# VH: B1 VH
# VL: B1 VL with V89T, W92R, S93G, Q94I
# B10: composite Fab H31/4L-14 (Fab, V domains shown)
# VH: B1 VH with N28H, M45H, D102E, D103M, S104F, P105R, Q106Y
# VL: B1 VL with Q26S, L27I, D28R, G29S, S30R, W92A, Q94S
# B11: composite Fab H101/4L-1 (Fab, V domains shown)
# VH: B1 VH with N28H, M45H, D102H, D103Q, S104R, P105R, Q106Y
# VL: B1 VL with Q26S, L27I, D28R, G29S, S30R, W92A, Q94S
# B12: composite Fab 4H/L42-1 (Fab, V domains shown)
# VH: B1 VH with T30V, V31I, E98P, W99Y, G100S
# VL: B1 VL with V89Q, S93P, Q94F
# B13: composite Fab H103/L42-4 (Fab, V domains shown)
# VH: B1 VH with N28H, V31L, M45H, D102H, D103Q, S104R, P105R, Q106Y
# VL: B1 VL with V89Q, S93P, Q94F
# B14: composite Fab H33/L42-17 (Fab, V domains shown)
# VH: B1 VH with N28H, V31L, M45H, D102E, D103M, S104F, P105R, Q106Y
# VL: B1 VL with V89Q, S93P, Q94F
# B15: composite Fab H33/LH-11 (Fab, V domains shown)
# VH: B1 VH with N28H, V31L, M45H, D102E, D103M, S104F, P105R, Q106Y
# VL: B1 VL with V89T, W92R, S93G, Q94H
# B16: composite Fab H101/L42-16 (Fab, V domains shown)
# VH: B1 VH with N28H, M45H, D102H, D103Q, S104R, P105R, Q106Y
# VL: B1 VL with V89Q, S93P, Q94F
# B17: composite Fab H101/L42-1 (Fab, V domains shown)
# VH: B1 VH with N28H, M45H, D102H, D103Q, S104R, P105R, Q106Y
# VL: B1 VL with V89Q, S93P, Q94F
# B18: Fab M556-2 (Fab, V domains shown)
# VH: B1 VH with D102E, D103Q, S104F, P105R, Q106F
# VL: B1 VL with Q26S, L27I, D28R, G29S, S30R, W92A, Q94S
# B19: Fab M556-3 (Fab, V domains shown)
# VH: B1 VH with D102E, D103M, S104F, P105R, Q106Y
# VL: B1 VL with Q26S, L27I, D28R, G29S, S30R, W92A, Q94S
# B20: Fab M556-7 (Fab, V domains shown)
# VH: B1 VH with D102E, D103M, S104R, P105R, Q106F
# VL: B1 VL with Q26S, L27I, D28R, G29S, S30R, W92A, Q94S
# B21: Fab M556-10 (Fab, V domains shown)
# VH: B1 VH with D102H, D103Q, S104R, P105R, Q106Y
# VL: B1 VL with Q26S, L27I, D28R, G29S, S30R, W92A, Q94S
# B22: Fab M556-15 (Fab, V domains shown)
# VH: B1 VH with D102T, D103Q, S104R, P105R, Q106F
# VL: B1 VL with Q26S, L27I, D28R, G29S, S30R, W92A, Q94S
# B23: Fab M556-16 (Fab, V domains shown)
# VH: B1 VH with D103Q, S104V, P105R, Q106Y
# VL: B1 VL with Q26S, L27I, D28R, G29S, S30R, W92A, Q94S
# Target: T1, recombinant gp120 of HIV-1 strain IIIb (HIV-1 strain IIIb, UniProt P04578 33-511)
# T1 construct: domain: gp120; also called IIIb-derived gp120; gp 120 (IIIB strain)
# Experiment: SPR BIAcore, gp120 on chip;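 as to Ka: fab fragments flowed at 0.5 to 10 ug/ml over immobilized gp120, resonance units tracked during association and dissociation, equilibrium constants derived from the rate constants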
# Source text: In the assay, the gp120 glycoprotein, isolated from both MN (AgMed, Cambridge, Mass.) and IIIb (American Bio-Technologies) strains of HIV-1 were coated onto gold chips. […] As the mass of the gold chips increases due to the binding of the Fabs to the ligand, the refractive index of the chips increases indicating a coordinate increase in the increase of the mass. Measurements of the "on" rate are made in addition to the "off" rates, the latter of which occurs as the Fabs begin to dissociate from the ligand and the mass coordinately decreases, thereby allowing a measurement of the change of the refractive index. Briefly, the sensor chip was activated for immobilization with N-hydroxysuccinimide an N-ethyl-N'-(3-diethyl aminopropyl) carbodiimide. The proteins, MN-derived or IIIb-derived gp120, were coupled to the surface by injection of 50 ul of a 50 ug/ml sample. Excess activated esters were quenched with 15 ul ethanolamine, 1 M pH 8.5. Typically, 4000 resonance units were immobilized. Binding of Fab fragments to immobilized gp120 was studied by injection of Fab in a range of concentrations (0.5 to 10 ug/ml) at a flow rate of 5 ul/minute. The association was monitored as the increase in resonance units per unit time. Dissociation measurements were acquired following the end of the association phase but with a flow rate of 50 ul/minute. The binding surface was regenerated with HCl, 1M NaCl, pH 3 and remained active for 20–40 measurements. […] Equilibrium association and dissociation constants were deduced from the rate constants.
Binder,Fold Increase of Mutant Kd Compared to MT4 Kd,Kd
B1,12.2 fold,0.51 nM
B2,14.9 fold,0.42 nM
B3,12.6 fold,0.5 nM
B4,13.7 fold,0.46 nM
B5,14.3 fold,0.44 nM
B6,10.3 fold,0.61 nM
B7,85.9 fold,0.074 nM
B8,94.4 fold,0.067 nM
B9,48.6 fold,0.13 nM

# Target: T1, recombinant gp120 of HIV-1 strain IIIb
# Experiment: SPR BIAcore, gp120 on chip;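 as to Ka: fab fragments flowed at 0.5 to 10 ug/ml over immobilized gp120, resonance units tracked during association and dissociation, equilibrium constants derived from the rate constants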
# Remark: another data set of the same source
Binder,koff,kon
B10,3.39e-06 s⁻¹,153000 M⁻¹ s⁻¹
B11,3.39e-05 s⁻¹,893000 M⁻¹ s⁻¹
B12,0.000615 s⁻¹,296000 M⁻¹ s⁻¹
B13,9.41e-06 s⁻¹,81800 M⁻¹ s⁻¹
B14,1.78e-05 s⁻¹,98400 M⁻¹ s⁻¹
B15,5.45e-06 s⁻¹,73200 M⁻¹ s⁻¹
B16,1.19e-05 s⁻¹,69100 M⁻¹ s⁻¹
B17,1.74e-05 s⁻¹,134000 M⁻¹ s⁻¹

# Target: T1, recombinant gp120 of HIV-1 strain IIIb
# Experiment: SPR BIAcore, gp120 on chip;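 as to Ka: fab fragments flowed at 0.5 to 10 ug/ml over immobilized gp120, resonance units tracked during association and dissociation, equilibrium constants derived from the rate constants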
# Remark: another data set of the same source
# Source text: (§1) As the mass of the gold chips increases due to the binding of the Fabs to the ligand, the refractive index of the chips increases indicating a coordinate increase in the increase of the mass. Measurements of the "on" rate are made in addition to the "off" rates, the latter of which occurs as the Fabs begin to dissociate from the ligand and the mass coordinately decreases, thereby allowing a measurement of the change of the refractive index. Briefly, the sensor chip was activated for immobilization with N-hydroxysuccinimide an N-ethyl-N'-(3-diethyl aminopropyl) carbodiimide. The proteins, MN-derived or IIIb-derived gp120, were coupled to the surface by injection of 50 ul of a 50 ug/ml sample. Excess activated esters were quenched with 15 ul ethanolamine, 1 M pH 8.5. Typically, 4000 resonance units were immobilized. Binding of Fab fragments to immobilized gp120 was studied by injection of Fab in a range of concentrations (0.5 to 10 ug/ml) at a flow rate of 5 ul/minute. The association was monitored as the increase in resonance units per unit time. Dissociation measurements were acquired following the end of the association phase but with a flow rate of 50 ul/minute. The binding surface was regenerated with HCl, 1M NaCl, pH 3 and remained active for 20–40 measurements. […] Equilibrium association and dissociation constants were deduced from the rate constants.
# The soluble composite Fabs were then analyzed for binding affinity to gp120 strain IIIB.
Binder,Fold Increase of Mutant Kd Compared to MT4 Kd,Ka,Kd
B10,284 fold,4.51e+10 M⁻¹,0.0222 nM
B11,16.6 fold,2.63e+09 M⁻¹,0.38 nM
B12,3.02 fold,4.81e+08 M⁻¹,2.08 nM
B13,55.8 fold,8.88e+09 M⁻¹,0.113 nM
B14,34.4 fold,5.46e+09 M⁻¹,0.183 nM
B15,85.4 fold,1.36e+10 M⁻¹,0.0738 nM
B16,36.6 fold,5.81e+09 M⁻¹,0.172 nM
B17,48.5 fold,7.7e+09 M⁻¹,0.13 nM

# Target: T1, recombinant gp120 of HIV-1 strain IIIb
# Experiment: SPR BIAcore, gp120 on chip;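 as to Ka: fab fragments flowed at 0.5 to 10 ug/ml over immobilized gp120, resonance units tracked during association and dissociation, equilibrium constants derived from the rate constants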
# Remark: another data set of the same source
# Source text: as §1
# The soluble M556 series Fabs were then analyzed for binding affinity to gp120 (strain IIIB).
Binder,Fold Increase of Mutant Kd Compared to MT4 Kd,Kd
B18,14.3 fold,0.439 nM
B19,63 fold,0.101 nM
B20,48.1 fold,0.131 nM
B21,69.5 fold,0.0906 nM
B22,36.2 fold,0.174 nM
B23,45.3 fold,0.139 nM

# Target: T1, recombinant gp120 of HIV-1 strain IIIb
# Experiment: SPR BIAcore, gp120 on chip (summary table)
row,Binder,Kd
1,B18,0.439 nM
2,B19,0.1 nM
3,B20,0.13 nM
4,B21,0.906 nM
5,B22,0.174 nM
6,B23,0.139 nM
7,B1,0.51 nM
8,B2,0.42 nM
9,B3,0.5 nM
10,B4,0.46 nM
11,B5,0.44 nM
12,B6,0.61 nM
13,B7,0.074 nM
14,B8,0.067 nM
15,B9,0.13 nM
16,B10,0.022 nM
17,B11,0.38 nM
18,B13,0.113 nM
19,B14,0.183 nM
20,B15,0.0738 nM
21,B16,0.17 nM
22,B17,0.13 nM

# Reference: patent publication US6395275 (Scripps Research, dated 2002)
